Measurements published in a protein production outcome set (Wang et al. 2014).

Assay: label from the status in PepcDB records
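Note: failed if final PepcDB status was selected cloned or expressed and not failed if soluble or beyond.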

Row | Sequence | protein production
1 | MSRAEKSTAEQSGHIQHGVRKAAGVVFMVFGTMCFASKSIFVKWAYEQGAQPEAVLLYRQLFAAPLFWLIFIVYRSKLPAKPEKAEIFKACAAGLLCFFLSPLLDFIGLHGVSATVERMIVMSYPMFVLIITAFVNKKMVSGKTFAAILLVNAGLFLAVGGWDVQALEANLSGAFLILLSAVAYAAYLVVAGGLVRQIGGIRMNAYGMSAASLAMAGYALLRSLREQPGIVLSYPPAMYGFFMIIAAVTTVIPFLFMLEGMKRIGAERGAVISMIGPVLTIFGGVLFLNERLTPVQWLGCLLVHLTVSLLEYRK | failed
2 | MSRDPILSLPWPDARPLPDTFFDRDALLVARELLGKVIRHRQGNLWLAARIIETEAYYLEEKGSHASLGYTEKRKALFLDGGHIYMYYARGGDSLNFSAGGPGNAVLIKSGHPWLDRISDHTALERMQSLNPDSQGRPREIGRLCAGQTLLCKAMGLKVPEWDAQRFDPQRLFVDDVGERPSQVIQAARLGIPKGRDEHLPYRFVDAAFAAFCTRNPLRRGQVAGRDYHLLGHQDPHLQ | failed
3 | MSRDTERYPVKHANSLWQIYKTVPFWKVVKNFVVIQLARYTPFVSVKNWLYRTFLKMDVGEKTAFALMVMPDIMFPERISVGRNSIIGYNTTILAHEYLIEEYRLGDVIIGDEVMVGANTTILPGVTIGDRAIIAAGTVVHKNVPPGAFVGGNPMQVIKQLEHHHHHH | failed
4 | MSREDELLEKLDECENATAFLQVSNKIINLKLKALLPSVFVQDDLVKEYAVDPLLREDGPLVTTDVVSKLMFAMGKISLQTYADIGLYDQVLEYVVTQPEKIAFTDDVIYDFIKNQAVLSSQQDCFYLESINQLKFSSFESFSQMRYESLIKTVLKLSCEMLIERIEEEINQ | not failed
5 | MSRGLLEACIEFIRETPAGDALRIVAYEFTFKRILLELKAALERGVDVRIVYHATTANEKAIADAKLPENSKGVQILFKRTRPQTPHNKFIVRLKKGKTPVSVWTGSTNFTPSGFLGQTNVGHKVTDGDIAKIYLQLWEGLKADPDDFDATQLEHHHHHH | not failed
6 | MSRKVILTCAVTGNAPFNPKHPSMPITPAQIADACVEAAKAGASVAHIHVRDPKTGGGSRDPVLFKEVVDRVRSSGTDIVLNLTCGLGAFLLPDPEDESKALPESDVVPVAERVKHLEDCLPEIASLDITTGNQVEGKLEFVYLNTTRTLRAMARRFQELGIKPELEVFSPGDILFGKQLIEEGLIDGVPLFQMVLGVLWGAPASTETMIYQRNLIPANAQWAAFGIGRDQMPMMAQAALLGGNVRVGLEDNLYLSRGVFATNGQLVERARTVIEHLGMSVATPDEARDIMGLSRPA | not failed
7 | MSRLFHQRGNVMPIHVITALPGGGKTAIMVEMLEAEAKIGARPLFAAGIDGLQPGLATVLDDPSQWNAKDAHGNYVVPDGSLVFVDEAWKWFGMKYGGSGMRQTTPDHVRALAEHRHRGLDFVWTTQQAHKQLYSFVHGLIGRHTFIKRRFGTRFLDVWEWDEMVENVNSASNREFSRHQVRTLPKHVYSLYKSAEIHT | failed
8 | MSRMMKMGTGTLRVILWFASILIWFSIFVPIEYLVNYFSGETTNYILHSDDFMMPIKTHVASTNAIASFPSGLYTTLMIIGYILMLVGVFITIQAVSAIVRHIQEQDYFSTENSQQMNRIVKGQIWILGSSLLMACANQLTVSWLYRISQFGLGWDNLLSAFVDLIIFALIAMIYTRAVNMKTESDLTI | failed
9 | MSRNHLPFSAGELEALPLFRFVPLECIEGILEHSCVVSLERGERFEPAGPLGRTIHLILDGRLALYYDVRERDDTPLHLERGDIVGQSLVSGEPEVPCTLVAAEETRLMILEEDLIWSLAQASHAAACNLLGILLRGRGGSPQESFSGTVRDYALRNQAVVDPLTGFQSRRWLEGILSRQVDRFTANGRPLSLVMIDIDGFRAFNERHGRAGGDRALHDVAKTLRNSLRPGELVARYGGDTFAVLLPETEPSTAWMIADRLRQRLMRTVIDMGDGAMLPPLSISAGVAEATPGIDGPTIADNALAALDRAKAAGGNTVSR | failed
10 | MSRPRLELGTWGKITRTEVAEGKHRARARFRDFTGKTRQVEAYGASGAKAERQLLANLRSRVESAGDTISGNTTVSSLGKIWTGNLGKSDEHTEQTIERYESIVEKIIGPALGEYLIMEATVSRVDGFLRALADKTPGRAKTTKSVLKSMFDLAVRHDALRTNPVREVRLPTKRKKPVQALTIDEVGTLREGLRKWQAADGVKGPTRSTELLDVVDLMLGTGMRIGEVLALRWSDVDLGEHPRLTVSGTLVPIKEKGLRRQAHTKTASGFRVLTLPAFVVEVLLRRSVESIPTETNAVFPSGAGTWKWPNNYRRALRAALKEMENTSGITPHVFRKSVATLIDAEATLEAAAAVLGHSGTGVTSAHYVAKAATAPDMSSILDQFGGNRIQKDG | failed
11 | MSRPTVSVIIPTHNRAKLLKRAIISVLNQTFEDFEIIVVDDASSDNTPNIIESIKDSRIRYIRLEKNSGAPTARNIGIKKARGKFIALLDDDDEWLPRKLEVQVKKFNELEKKFGVVYGGFYYVSQQNERIIGKRLPRFRGNVYGELLKENFIGSPTVLIRRECFKKAGLFDPKLPSSQDWDMWVRIARYYYFDYIVAKYYVHGHQISFNINEKYIPGREIFISKHKDIANNPKILSMHLTQMGLLSILGGNIEKGVKYLAQSITISPLNIDSYKKVIELTLDSRFLEYVKNILHANYLEHHHHHH | failed
12 | MSRRGLEREGGKPVSSDAKGLKRVDVRLKWDPSPWDRPPHHLDIIATTYAADAPHGRPVYVVQFDKRSPDGTINMSRHSRTGQGFGFVEEMTFELDRLSPSIARVIVGVAIHQDNGHKTFDDVSNTGVVVAEGYRELLTDGFERVAGATAATVAEFTRNASGAWEFREAVRGFDSDPVLFATEMGSAPRP | not failed
13 | MSRRRMSESLPPGVQVDPAAIEQLVGRPVDDLSHYRRALTHRSLLRVHPARTFRSNERLEFLGDALLDVFVGEVLYDRFPEKDEGALTRLRARLVSERPLATYARGLGLGPHLLMSENAAEGDGRDNPSILADAFEAFVGAVYLDLGHEAARGFVQDRVLAPVDLEDVATRDDNYKSQLLEHLQALGRPQPTYHVVEEKGPSHDKTFTVEVRVGDAAYERGTAGSKQDAEQQAARRTLDEMASDPPAS | failed
14 | MSRSFFAVLRDGKRYADKWPHHSVVAAMAESRIIPITRKAISWTPGIAVLNAALTWQFMPQEQLAPGLMLSLIMLSLPLQGLYWLGWRSRQPLKPMLRNWYKELRDKLRKQGVECQPQGEKGPEYMDLAIILRKALETLPPEEH | failed
15 | MSRSSSPPLAPARRTRGGHACLALAMVLAGSTVPASKLIAAEVAPFTATAIRLGLALPVFLLLMRATGARWPRPGRRDACLLALQAAAGSVGYTALLIAGLRLTSAADAAVVIGTLPAVTALLAMAVLRERPPPRTLAAIALAAAGVLVLVGGRTDDAPGSLAGNLLVLGAVVCEGLFILLSKRLRAPIAPLPLSAALTAIGAVLAGAAALAEAPWHAAFGSPALAVLAYYAWLPTVAGFVLWYAGLARASASEAALFTALAPVAAVLLAALALGETVGPRQAAGIGCVLAAVLALRPGGDKQSQKENIK | failed
16 | MSRTLVLFDIDGTLLKVESMNRRVLADALIEVYGTEGSTGSHDFSGKMDGAIIYEVLSNVGLERAEIADKFDKAKETYIALFRERARREDITLLEGVRELLDALSSRSDVLLGLLTGNFEASGRHKLKLPGIDHYFPFGAFADDALDRNELPHIALERARRMTGANYSPSQIVIIGDTEHDIRCARELDARSIAVATGNFTMEELARHKPGTLFKNFAETDEVLASILTPKHS | not failed
17 | MSRTTPYRLDDQIGFILRQANQRYAALFANGIGNGLTPTQWAALVRLGETGPCPQNQLGRLTAMDAATIKGVVERLDKRGLIQRSADPDDGRRLLVSLSPAGRAELEAGLAAAREINRQALAPLSLQEQETLRGLLARLI | not failed
18 | MSRVQMDTEEVREFVGHLERFKELLREEVNSLSNHFHNLESWRDARRDKFSEVLDNLKSTFNEFDEAAQEQIAWLKERIRVLEEDY | not failed
19 | MSRYIEAGLSDIGTLGEYVAERPNKGFEPARRRAGVSHTTVSGPKLAVAVMAVSAVCCPCGCQCVLVTPLSPRSFTLCAHIIDTMNTLVDGEWRTDAYETTNEDGAFDRQDTTFRDRVEDDPDARFQPEAGRYHLYACRACPWAHRILVARKLLGLEDAITVDYVDPFRGEDGWQFTPEKAGCTPDTVNGSDYLREVYVEADPDATCRVTVPVLWDKQEETIVNNESEEILRMLDTEFDDVSDNDVDLYPEGYQDEVDRIIDDIYEPINNGVYRSGFADSQSAYDEAVEELFDALDHWDTVLEDQRFLAGDRLTEADICLFTTLVRFDEVYHTHFMCNHKLIREYDNLWPYLRDLYQLPGVAETVNMDHITEHYYTTHPDVSPKRIVPMGPDPDFEAVHDRDELPGDLPETLFPTA | failed
20 | MSSACDAGDHYPLHLLVWKNDYRQLEKELQGQNVEAVDPRGRTLLHLAVSLGHLESARVLLRHKADVTKENRQGWTVLHEAVSTGDPEMVYTVLQHRDYHNTSMALEGVPELLQKILEAPDFYVQMKWEFTSWVPLVSRICPNDVCRIWKSGAKLRVDITLLGFENMSWIRGRRSFIFKGEDNWAELMEVNHDDKVVTTERFDLSQEMERLTLDLMKPKSREVERRLTSPVINTSLDTKNIAFERVFRVLKLTLLQLTVCS | failed
21 | MSSAQVNGISKRLIVESPNVKLEDGVLESRFTYRKNHFEHRADGLHVTPKEHDYSFKTVLKPRKTGLLLVGLGGNNGSTAVGSIFANQYAMTWRTKEGHSQANYFGSVTQTATVHLGYDSATQNQIFVPFKDIVPILSPNDLIISGWDISDSNLYEAMGRAKVFEPELQEKLRPFMEPIVPLPSIYYPDFIASNQGDRANNVIPGDNKLEHLEHIRADIRKFKQEHELECVIVLWTANTERYTDVRQGLNATADEIMESIRVNEDEVSPSNIFAVASILEGAHYINGSPQNTLVPGLIELAERHKVFVGGDDFKSGQTKFKSAFVDFLVSSGMKPESIVSYNHLGNNDGKNLSEARQFRSKEISKSSVVDDMVKSNQILFPDAKNPDYCVVIKYVPYVADSKRAMDEYICSIFMGGKQTFVVHNTCEDSLLASPLIYDLAILTELASRVSYKVDDEYKPFHSVLSILSLLLKAPVVPPGTPISNAFMRQFSTLTKLVTALAGFPSDTDMQIEFFTQLPAAKSKSQ | not failed
22 | MSSARLVIAGLNGGTGKTILSLGTVRALTNAGHSVKPFKKGPDYIDAEWLGLAAGRAATNLDPFFLDAARLQSLFLHASAGASISIIEGNRGLYDGRDVTGSCSTAELARILDSPVVLAMDCTKMTRTAAAILSGVAAFEPGVKLAGVVLNRTANERHRSMLRQCIEHYTDIPVLGALPRLRDNPIPERHMGLVSDREFAQCAGELDRVAQFVAQHVDVERMAEIARSAQPLASNEPFWPVVAEGDGVRPRIGYVRDAALWFYYEENLEALRQAGADLVELRIIDGDPWPTLDGLYLGGGFPETLASELSACRERLAGIREAALAGLPVYAECGGFMVLGESIVMDGVEYPMSGVFPVQTVFHPKPQGLGYVEAEVVAENPFFPQGMVFRGHEFHYSACRPRDGGAVTHALRLNPGTGMGGGADGLVQANTFAAYTHIFGPAVQGWAERFVRAARGHRDQLNKGTDLSLEHHHHHH | failed
23 | MSSCCAAEAKNASERKLLWIVLILNFSMFVIEFIAGWLANSSGLLADSLDMLADAAVYSLSLYAVGKSLLYKGRAALANGYLQLSLGLLVLVDVARRIWLGSEPQSELMLSIGFMALIVNMICFVLLYQFRQGDVNLKASWICSRNDMLANIGIIISAVLVGQFDAAWPDWVIGSVIAGIVIHSSLAIINEAKVSIQSDAVADKNRT | failed
